Target: T1, upf1-DE572AA-GFP (S. cerevisiae, UniProt P30771 1-971, DE572AA)
T1 sequence (looked up): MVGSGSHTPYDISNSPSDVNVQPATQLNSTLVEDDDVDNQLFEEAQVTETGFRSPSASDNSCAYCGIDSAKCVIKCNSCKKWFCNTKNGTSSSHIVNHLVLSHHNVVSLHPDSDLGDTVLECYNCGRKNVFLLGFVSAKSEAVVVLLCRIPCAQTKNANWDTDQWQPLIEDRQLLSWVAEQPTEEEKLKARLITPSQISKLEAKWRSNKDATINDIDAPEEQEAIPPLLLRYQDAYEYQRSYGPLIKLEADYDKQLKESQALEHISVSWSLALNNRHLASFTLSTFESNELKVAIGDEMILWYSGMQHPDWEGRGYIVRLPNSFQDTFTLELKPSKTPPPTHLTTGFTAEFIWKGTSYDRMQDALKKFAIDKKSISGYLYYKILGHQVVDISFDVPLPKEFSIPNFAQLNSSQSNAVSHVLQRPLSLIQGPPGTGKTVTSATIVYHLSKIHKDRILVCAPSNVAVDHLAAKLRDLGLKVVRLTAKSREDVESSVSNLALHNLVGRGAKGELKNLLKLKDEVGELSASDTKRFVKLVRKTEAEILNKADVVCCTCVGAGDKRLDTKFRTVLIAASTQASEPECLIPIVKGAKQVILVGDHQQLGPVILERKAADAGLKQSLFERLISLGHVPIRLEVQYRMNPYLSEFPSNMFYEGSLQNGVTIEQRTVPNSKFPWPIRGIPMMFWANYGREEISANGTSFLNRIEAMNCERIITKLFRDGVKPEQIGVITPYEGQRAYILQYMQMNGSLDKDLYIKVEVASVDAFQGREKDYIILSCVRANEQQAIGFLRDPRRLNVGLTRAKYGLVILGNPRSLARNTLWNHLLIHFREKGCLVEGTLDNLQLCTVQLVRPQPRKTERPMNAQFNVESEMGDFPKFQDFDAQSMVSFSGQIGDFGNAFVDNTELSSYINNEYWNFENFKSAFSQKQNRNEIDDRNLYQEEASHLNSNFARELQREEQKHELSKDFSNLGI
Assay: co-IP

B1: Gbp2 (natural protein, UniProt P25555 1-427, looked up)
chain: MERELGMYGNDRSRSRSPVRRRLSDDRDRYDDYNDSSSNNGNGSRRQRRDRGSRFNDRYDQSYGGSRYHDDRNWPPRRGGRGRGGSRSFRGGRGGGRGRTLGPIVERDLERQFDATKRNFENSIFVRNLTFDCTPEDLKELFGTVGEVVEADIITSKGHHRGMGTVEFTKNESVQDAISKFDGALFMDRKLMVRQDNPPPEAAKEFSKKATREEIDNGFEVFIINLPYSMNWQSLKDMFKECGHVLRADVELDFNGFSRGFGSVIYPTEDEMIRAIDTFNGMEVEGRVLEVREGRFNKRKNNDRYNQRREDLEDTRGTEPGLAQDAAVHIDETAAKFTEGVNPGGDRNCFIYCSNLPFSTARSDLFDLFGPIGKINNAELKPQENGQPTGVAVVEYENLVDADFCIQKLNNYNYGGCSLQISYARRD
- fold co-precipitation relative to wild-type Upf1-GFP: > 1.5 fold
